Test results: patent US7423125
Substitutions are numbered along the chain they refer to. Names may count otherwise.

T1: VEGFR-3EC-Ig (seven Ig loops of the VEGFR-3 extracellular domain fused to an immunoglobulin heavy chain … (UniProt P35916 25-775, limits assumed))
T1 construct: domain: seven Ig loops of the extracellular domain; also called VEGFR-3EC domain; not shown: immunoglobulin heavy chain constant region, not specified
T1 sequence (looked up): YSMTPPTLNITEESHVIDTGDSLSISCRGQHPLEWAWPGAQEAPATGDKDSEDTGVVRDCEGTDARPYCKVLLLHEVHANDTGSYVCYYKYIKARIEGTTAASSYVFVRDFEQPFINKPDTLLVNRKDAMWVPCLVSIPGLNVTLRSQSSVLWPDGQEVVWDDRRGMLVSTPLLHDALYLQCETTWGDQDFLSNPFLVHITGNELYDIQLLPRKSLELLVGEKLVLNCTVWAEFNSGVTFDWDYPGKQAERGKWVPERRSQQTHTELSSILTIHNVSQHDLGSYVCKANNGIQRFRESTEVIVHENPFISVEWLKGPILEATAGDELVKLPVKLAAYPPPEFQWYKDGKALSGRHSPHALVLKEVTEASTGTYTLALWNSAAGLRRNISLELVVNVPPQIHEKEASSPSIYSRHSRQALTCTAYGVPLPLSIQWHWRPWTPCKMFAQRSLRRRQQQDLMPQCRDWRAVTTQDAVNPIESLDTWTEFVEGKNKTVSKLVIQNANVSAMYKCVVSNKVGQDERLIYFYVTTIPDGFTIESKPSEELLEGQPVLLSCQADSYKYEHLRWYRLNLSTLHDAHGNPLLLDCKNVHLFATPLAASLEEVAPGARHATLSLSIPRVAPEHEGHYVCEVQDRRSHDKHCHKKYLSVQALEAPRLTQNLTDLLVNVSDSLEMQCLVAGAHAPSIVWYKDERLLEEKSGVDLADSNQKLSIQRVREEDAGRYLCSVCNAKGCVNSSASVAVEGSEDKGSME

T2: Flt4 extracellular domain with C-terminal 6×His tag (Flt4EC), baculovirus-produced (human, UniProt P35916 25-775)
T2 construct: extracellular domain; also called Flt4EC-Sepharose
T2 sequence: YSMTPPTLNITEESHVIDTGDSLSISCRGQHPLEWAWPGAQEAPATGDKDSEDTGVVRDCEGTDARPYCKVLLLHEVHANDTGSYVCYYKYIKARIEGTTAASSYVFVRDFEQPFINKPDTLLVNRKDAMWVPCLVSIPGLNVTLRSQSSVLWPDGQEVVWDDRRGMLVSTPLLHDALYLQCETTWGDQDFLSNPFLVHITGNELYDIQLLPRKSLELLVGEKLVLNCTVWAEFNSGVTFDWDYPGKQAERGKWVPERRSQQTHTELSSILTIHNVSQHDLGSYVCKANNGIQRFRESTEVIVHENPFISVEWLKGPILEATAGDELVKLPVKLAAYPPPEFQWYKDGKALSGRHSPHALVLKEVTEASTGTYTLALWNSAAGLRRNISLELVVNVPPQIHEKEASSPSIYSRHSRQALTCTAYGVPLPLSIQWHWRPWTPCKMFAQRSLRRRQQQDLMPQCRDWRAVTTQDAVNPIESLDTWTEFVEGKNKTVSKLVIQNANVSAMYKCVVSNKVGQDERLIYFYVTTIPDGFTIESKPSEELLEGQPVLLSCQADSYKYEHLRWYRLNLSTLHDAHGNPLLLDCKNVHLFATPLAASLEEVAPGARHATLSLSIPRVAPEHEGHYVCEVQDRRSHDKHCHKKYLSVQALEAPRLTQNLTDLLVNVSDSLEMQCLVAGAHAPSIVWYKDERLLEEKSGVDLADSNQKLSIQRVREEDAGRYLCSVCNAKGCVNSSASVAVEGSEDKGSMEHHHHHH

B1: VEGF-C ΔNΔCHis (ligand)
chain: TEETIKFAAAHYNTEILKSIDNEWRKTQCMPREVCIDVGKEFGVATNTFFKPPCVSVYRCGGCCNSEGLQCMNTSTSYLSKTLFEITVPLSQGPKPVTISFANHTSCRCMSKLDVYRQVHSIIHHHHHH
notes: the yeast protein was iodinated as tracer; also called VEGF-C ΔCΔNHis; recombinantly-matured VEGF-C
B2: VEGF-CΔNΔCHis C156,165S (ligand)
chain: B1 chain with C54S, C63S
notes: also called C156,165S form
B3: VEGF-CΔNΔCHis C156S (ligand)
chain: B1 chain with C54S
notes: also called VEGF-CΔNΔCH is R156S (as printed once); VEGF-C ΔNΔC156S
B4: VEGF-CΔNΔCHis C165S (ligand)
chain: B1 chain with C63S
notes: also called C165S form
B5: Flt4 ligand of about 23 kD from PC-3 cell conditioned medium (naturally processed VEGF-C) (ligand)
chain: TEETIKFAAAHYNTEILKSIDNEWRKTQCMPREVCIDVGKEFGVATNTFFKPPCVSVYRCGGCCNSEGLQCMNTSTSYLSKTLFEITVPLSQGPKPVTISFANHTSCRCMSKLDVYRQVHSIIRR
notes: also called 23 kD polypeptide; 21-23 kD form (PC-3)
B6: VEGF-C R226,227S (ligand)
chain: FESGLDLSDAEPDAGEATAYASKDLEEQLRSVSSVDELMTVLYPEYWKMYKCQLRKGGWQHNREQANLNSRTEETIKFAAAHYNTEILKSIDNEWRKTQCMPREVCIDVGKEFGVATNTFFKPPCVSVYRCGGCCNSEGLQCMNTSTSYLSKTLFEITVPLSQGPKPVTISFANHTSCRCMSKLDVYRQVHSIISSSLPATLPQCQAANKTCPTNYMWNNHICRCLAQEDFMFSSDAGDDSTDGFHDICGPNKELDEETCQCVCRAGLRPASCGPHKELDRNSCQCVCKNKLFPSQCGANREFDENTCQCVCKRTCPRNQPLNPGKCACECTESPQKCLLKGKKFHHQTCSCYRRPCTNRQKACEPGFSYSEEVCRCVPSYWKRPQMS
notes: The C-terminal cleavage site is destroyed; N-terminal processing may still occur; also called non-processed VEGF-C R226,227S

How the values were obtained:
[1] = target: the molecule itself; test: homodimer formation, chemical crosslinking
[2] = target: T3, Flt4 receptor tyrosine kinase (VEGFR-3) expressed on cells (human, UniProt P35916 25-1363); test: Scatchard analysis with 125I-labelled ligand
T3 construct: whole, on cells; also called LTRFlt4l; NIH 3T3-Flt4 cells
Protocol: (§1) To study receptor binding, PAE/VEGFR-2 and PAE/VEGFR-3 cells were seeded into 24-well tissue culture plates (Nunclon), which had been coated with 2% gelatin in PBS. […] The binding was allowed to proceed at room temperature for 90 minutes. The plates were then transferred onto ice and washed three times with ice-cold PBS containing 0.1% BSA. The cells were then lysed in 1 M NaOH, the lysates were collected, and the radioactivity was measured using a γ-counter.

[3] = target: T4, KDR (VEGFR-2) expressed on porcine aortic endothelial cells (UniProt P35968 20-1356, limits assumed); test: Scatchard analysis with 125I-labelled ligand
T4 construct: whole, on cells; also called KDR/Flk-1; PAE-KDR cells
T4 sequence (P35968 20-1356 limits assumed): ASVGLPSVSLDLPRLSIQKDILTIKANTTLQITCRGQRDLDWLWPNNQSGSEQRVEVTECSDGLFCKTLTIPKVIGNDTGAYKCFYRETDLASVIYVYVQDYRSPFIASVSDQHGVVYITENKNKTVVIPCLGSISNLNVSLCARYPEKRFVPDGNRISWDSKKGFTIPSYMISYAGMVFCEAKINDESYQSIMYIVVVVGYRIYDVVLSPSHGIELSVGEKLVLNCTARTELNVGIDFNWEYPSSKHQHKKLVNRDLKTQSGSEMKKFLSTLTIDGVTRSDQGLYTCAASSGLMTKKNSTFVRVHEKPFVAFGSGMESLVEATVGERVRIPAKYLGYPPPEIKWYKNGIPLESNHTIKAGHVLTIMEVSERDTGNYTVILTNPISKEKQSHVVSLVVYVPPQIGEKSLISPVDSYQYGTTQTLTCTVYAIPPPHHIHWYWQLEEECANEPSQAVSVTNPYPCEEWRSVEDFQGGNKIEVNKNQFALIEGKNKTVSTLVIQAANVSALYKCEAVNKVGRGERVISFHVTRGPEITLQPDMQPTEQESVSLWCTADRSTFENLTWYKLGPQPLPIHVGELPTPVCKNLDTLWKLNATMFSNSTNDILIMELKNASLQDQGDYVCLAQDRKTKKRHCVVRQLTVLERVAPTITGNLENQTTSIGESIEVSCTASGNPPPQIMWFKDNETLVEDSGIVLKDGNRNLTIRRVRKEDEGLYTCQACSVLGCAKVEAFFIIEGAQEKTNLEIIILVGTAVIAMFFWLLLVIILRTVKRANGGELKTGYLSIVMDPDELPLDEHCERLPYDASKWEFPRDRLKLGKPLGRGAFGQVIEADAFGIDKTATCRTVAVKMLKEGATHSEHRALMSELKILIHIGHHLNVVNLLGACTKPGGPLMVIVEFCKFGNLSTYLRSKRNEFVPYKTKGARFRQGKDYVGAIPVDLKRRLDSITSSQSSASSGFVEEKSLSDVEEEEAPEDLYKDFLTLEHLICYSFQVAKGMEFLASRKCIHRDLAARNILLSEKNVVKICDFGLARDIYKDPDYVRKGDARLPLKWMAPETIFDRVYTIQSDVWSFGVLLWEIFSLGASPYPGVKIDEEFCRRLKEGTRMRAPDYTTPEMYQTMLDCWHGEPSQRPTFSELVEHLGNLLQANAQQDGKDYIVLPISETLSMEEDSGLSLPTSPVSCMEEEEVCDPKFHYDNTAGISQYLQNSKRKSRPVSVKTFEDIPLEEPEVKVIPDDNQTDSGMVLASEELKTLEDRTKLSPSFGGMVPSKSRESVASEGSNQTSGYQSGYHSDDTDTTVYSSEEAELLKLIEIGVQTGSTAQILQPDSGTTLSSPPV
Protocol: as §1

chemical crosslinking = target: the molecule itself; test: chemical crosslinking
[4] = target: T1, VEGFR-3EC-Ig (seven Ig loops of the …); test: receptor binding studies
[5] = target: T5, VEGFR-2EC-Ig (three Ig loops of the VEGFR-2 extracellular domain fused to an immunoglobulin heavy chain … (UniProt P35968 20-327, limits assumed)); test: receptor binding studies
T5 construct: domain: three Ig loops of the extracellular domain; also called VEGFR-2EC domain; not shown: immunoglobulin heavy chain constant region, not specified
T5 sequence (P35968 20-327 limits assumed): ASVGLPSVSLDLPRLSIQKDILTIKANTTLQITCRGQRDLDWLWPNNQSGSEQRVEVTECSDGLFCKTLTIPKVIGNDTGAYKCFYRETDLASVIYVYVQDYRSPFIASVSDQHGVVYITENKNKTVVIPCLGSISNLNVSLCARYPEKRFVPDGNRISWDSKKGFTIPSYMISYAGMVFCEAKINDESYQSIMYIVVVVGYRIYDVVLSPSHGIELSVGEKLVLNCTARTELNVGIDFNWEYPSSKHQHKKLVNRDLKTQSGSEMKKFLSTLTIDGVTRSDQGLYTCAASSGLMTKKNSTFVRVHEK

[6] = target: T5, VEGFR-2EC-Ig (three Ig loops of the …); test: pull-down of 35S-labelled protein with VEGFR-2EC-Ig
Protocol: An aliquot of the transfected cells were metabolically labelled for 6 hours with 100 microcuries/ml of the PRO-MIX™ L-[^35S] in vitro cell labelling mix (Amersham).

[7] = target: T4, KDR (VEGFR-2) expressed on porcine …; test: competition with 125I-VEGF-CΔNΔCHis on PAE/VEGFR-2 cells
Protocol: as §1

[8] = target: T2, Flt4 extracellular domain with …; test: depletion of conditioned medium on Flt4EC-Sepharose

Row | Binder | binding result [1] | binding result (chemical crosslinking) | binding result [4] | binding result [5] | binding result [7] | other results
1 | B1 | binds |  |  |  |  | Kd [2]: 0.135 nM; Kd [3]: 0.41 nM
2 | B2 |  | no binding | no binding | no binding |  | 
3 | B3 | binds |  |  |  | no binding | binding result [6]: no binding
4 | B4 |  | no binding | no binding | no binding |  | 
5 | B5 |  |  |  |  |  | binding result [8]: binds
6 | B6 |  |  |  |  | binds | 
